Molecular target: PTEN-long (endogenous human form, translated from the upstream CUG start site of PTEN mRNA) (Homo sapiens)
Experiment: concanavalin A sepharose pulldown from HEK293 lysate, immunoblot

“concanavalin A (lectin, on sepharose) (from UniProt P02866)” was tested, and the share of PTEN-long in the PTEN pulled down was 50%.

Reference: patent US20130171235A1
